Source: patent publication US20160250325A1 (ISA PHARMACEUTICALS B V, published 2016)
One block for each binder: values may come before it. Ends that are not written are not given here. * marks the point of attachment. X1 = (RS)‑2,3‑di(palmitoyloxy)propyl, CCCCCCCCCCCCCCCC(=O)OCC(C*)OC(=O)CCCCCCCCCCCCCCC

Molecular target: mouse TLR2 on a murine dendritic cell line (mouse, UniProt Q9QUN7 25-784)
Experiment: cell-based or functional assay

Chain of mouse TLR2 on a murine dendritic cell line (Q9QUN7 25-784): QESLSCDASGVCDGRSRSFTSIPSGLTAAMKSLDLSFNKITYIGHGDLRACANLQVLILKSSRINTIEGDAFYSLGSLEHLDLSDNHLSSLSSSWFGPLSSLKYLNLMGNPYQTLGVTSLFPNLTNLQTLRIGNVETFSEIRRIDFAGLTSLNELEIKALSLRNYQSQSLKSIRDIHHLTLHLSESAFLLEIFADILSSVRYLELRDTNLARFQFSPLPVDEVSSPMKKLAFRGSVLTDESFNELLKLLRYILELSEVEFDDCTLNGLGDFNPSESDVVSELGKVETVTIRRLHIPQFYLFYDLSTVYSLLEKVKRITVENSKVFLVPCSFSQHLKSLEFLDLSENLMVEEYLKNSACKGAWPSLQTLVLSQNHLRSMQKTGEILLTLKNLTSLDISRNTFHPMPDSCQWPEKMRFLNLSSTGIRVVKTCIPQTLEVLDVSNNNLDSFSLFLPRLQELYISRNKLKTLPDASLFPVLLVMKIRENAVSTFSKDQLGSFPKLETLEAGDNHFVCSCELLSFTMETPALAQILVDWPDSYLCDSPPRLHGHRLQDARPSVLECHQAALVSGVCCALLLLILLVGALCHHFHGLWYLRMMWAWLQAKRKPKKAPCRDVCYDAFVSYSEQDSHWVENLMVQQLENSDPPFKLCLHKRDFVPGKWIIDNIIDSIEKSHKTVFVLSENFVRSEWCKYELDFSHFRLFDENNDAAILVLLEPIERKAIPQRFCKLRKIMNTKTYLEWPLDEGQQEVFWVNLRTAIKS

- IL-12 in supernatant of a murine dendritic cell line after 24 h (sandwich ELISA); concentration needed for similar stimulation, against Pam3CysSK4: 100 fold
- IL-12 in supernatant of a murine dendritic cell line after 24 h (sandwich ELISA); maximal stimulation level against Pam3CysSK4: 2 fold
Binder: {1‑tetradecyl‑urea}-C(X1)SKKKK-NH2 (also: epimer mixture at C-2 of dipalmitoyloxypropyl) [U-Pam-14 (1-tetradecyl-urea-Cys((RS)-2,3-di(palmitoyloxy)-propyl)-Ser-Lys-Lys-Lys-Lys-NH2)]

- IL-12 in supernatant of a murine dendritic cell line after 24 h (sandwich ELISA); concentration needed for similar stimulation, against Pam3CysSK4: 100 fold
- IL-12 in supernatant of a murine dendritic cell line after 24 h (sandwich ELISA); maximal stimulation level against Pam3CysSK4: 2 fold
B1: U-Pam-12 (1-dodecadecyl-urea-Cys((RS)-2,3-di(palmitoyloxy)-propyl)-Ser-Lys-Lys-Lys-Lys-NH2) (peptide)
peptide: C(X1)SKKKK-NH2
modifications: not fully specified (N-terminus); printed as 1-dodecadecyl-urea-Cys((RS)-2,3-di(palmitoyloxy)-propyl)-Ser-Lys-Lys-Lys-Lys-NH2; also: epimer mixture at C-2 of dipalmitoyloxypropyl
